Values joined by “and” are separate entries in the source; they are usually repeats but may differ in a detail not shown here. Equal entries are not always repeated. Where two headings read alike, the source gives them in different places.
T1: mouse IL-18BP (mouse, UniProt Q9Z0M9 29-193)
T1 construct: also called mIL-18BP
T1 sequence: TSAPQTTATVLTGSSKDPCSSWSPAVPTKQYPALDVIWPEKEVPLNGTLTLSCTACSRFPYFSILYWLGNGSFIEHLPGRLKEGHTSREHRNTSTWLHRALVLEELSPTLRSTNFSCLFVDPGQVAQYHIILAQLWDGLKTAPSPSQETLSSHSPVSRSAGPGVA

T2: human IL-18BP (interleukin-18 binding protein, isoform A) (human, UniProt O95998 31-194)
T2 sequence: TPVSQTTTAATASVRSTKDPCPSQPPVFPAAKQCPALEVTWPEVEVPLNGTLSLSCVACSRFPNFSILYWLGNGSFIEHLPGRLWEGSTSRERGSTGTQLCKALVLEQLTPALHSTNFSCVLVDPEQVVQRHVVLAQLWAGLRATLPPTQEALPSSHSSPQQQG

T3: cynomolgus IL-18BP (cynomolgus monkey)
T3 construct: Generated in-house; also called cyIL-18BP; cyno IL-18BP
T3 chain: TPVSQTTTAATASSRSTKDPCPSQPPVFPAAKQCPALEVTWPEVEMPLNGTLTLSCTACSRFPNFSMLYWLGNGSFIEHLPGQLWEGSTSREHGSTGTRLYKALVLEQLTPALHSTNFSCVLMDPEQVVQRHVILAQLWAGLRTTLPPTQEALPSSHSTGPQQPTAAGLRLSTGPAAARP


Legend:
mouse IL-18BP [1] = target: T1, mouse IL-18BP; test: BLI (Octet), mAb on AHC biosensor
[2] = target: T2, human IL-18BP (interleukin-18 binding …); test: cell-based or functional assay
[3] = target: T2, human IL-18BP (interleukin-18 binding …); test: cell-based or functional assay; remark: listed apart in the source
cynomolgus IL-18BP [4] = target: T3, cynomolgus IL-18BP; test: BLI (Octet), mAb on AHC biosensor
[5] = target: T2, human IL-18BP (interleukin-18 binding …); test: BLI (Octet), mAb on AHC biosensor
mouse IL-18BP [6] = target: T1, mouse IL-18BP; test: BLI (Octet), mAb on AHC biosensor; remark: listed apart in the source
cynomolgus IL-18BP [7] = target: T3, cynomolgus IL-18BP; test: BLI single-concentration screen, apparent KD
[8] = target: T2, human IL-18BP (interleukin-18 binding …); test: BLI single-concentration screen, apparent KD
cynomolgus IL-18BP [9] = target: T3, cynomolgus IL-18BP; test: BLI (Octet), mAb on AHC biosensor
[10] = target: T2, human IL-18BP (interleukin-18 binding …); test: BLI (Octet), mAb on AHC biosensor; remark: listed apart in the source
cynomolgus IL-18BP [11] = target: T3, cynomolgus IL-18BP; test: ratio of BLI KDs, cyno against human IL-18BP
[12] = target: T2, human IL-18BP (interleukin-18 binding …); test: cell-based or functional assay; remark: listed apart in the source
cynomolgus IL-18BP [13] = target: T3, cynomolgus IL-18BP; test: BLI (Octet), mAb on AHC biosensor
[14] = target: T2, human IL-18BP (interleukin-18 binding …); test: BLI (Octet), mAb on AHC biosensor; remark: listed apart in the source
cynomolgus IL-18BP [15] = target: T3, cynomolgus IL-18BP; test: BLI (Octet), mAb on AHC biosensor
[16] = target: T2, human IL-18BP (interleukin-18 binding …); test: BLI (Octet), mAb on AHC biosensor; remark: listed apart in the source
cynomolgus IL-18BP [17] = target: T3, cynomolgus IL-18BP; test: ratio of BLI KDs for cyno and human IL-18BP
[18] = target: hypo-IL-18 (IL-18 tethered to IL-18BP by a flexible linker with TEV site, 6xHis) (human); test: BLI
cynomolgus IL-18BP [19] = target: T3, cynomolgus IL-18BP; test: BLI (Octet), mAb on AHC biosensor
[20] = target: T2, human IL-18BP (interleukin-18 binding …); test: BLI (Octet), mAb on AHC biosensor; remark: listed apart in the source
mouse IL-18BP [21] = target: T1, mouse IL-18BP; test: BLI (Octet), mAb on AHC biosensor; remark: listed apart in the source
mouse IL-18BP [22] = target: T1, mouse IL-18BP; test: BLI (Octet), mAb on AHC biosensor; remark: listed apart in the source

Chain of hypo-IL-18 (IL-18 tethered to IL-18BP by a flexible linker with TEV site, 6xHis) (human) (chain, as listed by the source limits assumed): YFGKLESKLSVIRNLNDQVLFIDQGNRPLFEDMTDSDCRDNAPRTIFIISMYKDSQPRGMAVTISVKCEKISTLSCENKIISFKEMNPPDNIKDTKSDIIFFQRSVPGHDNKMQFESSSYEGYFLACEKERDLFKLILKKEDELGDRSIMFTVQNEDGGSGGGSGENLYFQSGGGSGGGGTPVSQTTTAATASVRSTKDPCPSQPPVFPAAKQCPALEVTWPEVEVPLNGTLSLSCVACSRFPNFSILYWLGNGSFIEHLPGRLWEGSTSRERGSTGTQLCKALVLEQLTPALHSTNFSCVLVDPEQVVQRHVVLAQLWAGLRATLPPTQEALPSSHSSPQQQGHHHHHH

Row | Binder | EC50 (nM), KG-1 Assay (IFNγ) [2] | Kd (cynomolgus IL-18BP [4]) | Kd [5] | Kd (cynomolgus IL-18BP [9]) | Kd [10] | Cyno/human (cynomolgus IL-18BP [11]) | Kd (cynomolgus IL-18BP [13]) | Kd [14] | Kd (cynomolgus IL-18BP [15]) | Kd [16] | Human/Cyno Fold Difference (cynomolgus IL-18BP [17]) | binding result [18] | Kd (cynomolgus IL-18BP [19]) | Kd [20] | further results
1 | SA07a (antibody, human IgG1, V domains shown, murine variable regions on human IgG1 kappa constant regions) VH: EVQLQQSGPELVKPGASVKISCKASGYTFTDYYMNWVKQSHGKSLEWIGDINPNNGGTSYNQKFKGKATLTVDKSSNTAYMELRSLTSEDSAVYYCAREGVYSNYGGYFDYWGQGTTLTVSS VL: QIVLTQSPALMSASPGEKVTMTCSASSSVSYMYWYQQKPRSSPKPWIYLTSNLASGVPARFSGSGSGTSYSLTISSMEAEDAATYYCQQWSSNPPTFGSGTKLEIK | – | – | – | – | – | – | – | – | – | – | – | – | – | – | binding result (mouse IL-18BP [1]): no binding
2 | SA301a (antibody, human IgG1, V domains shown, humanized; human IgG1 (suffix a), kappa; also called humanized SA44a) VH: QVQLQESGPGLVKPSQTLSLTCTVSGYSITSDYNSHWIRQPPGKGLEWIGYIHYSGSTNYNPSLKSRVTISRDTSKNQFSLKLSSVTAADTAVYYCARNYGSIYVNYFDYWGQGTLVTVSS VL: EIVLTQSPATLSLSPGERATLSCSASSSVSYMYWYQQKPGQAPRPLIYRTSNLASGIPARFSGSGSGTDFTLTISSLEPEDFAVYYCQQYHSYPTFGGGTKVEIK | 1.3 nM | 0.078 nM | 0.162 nM | 0.102 nM | 0.217 nM | 0.47 ratio | – | – | – | – | – | – | – | – | EC50 in PBMC Assay 1 (endogenous IL-18BP), IFNγ [3]: 2 nM; binding result (mouse IL-18BP [6]): no binding; Kd (cynomolgus IL-18BP [7]): 0.1 nM and 0.2 nM; Kd [8]: 0.2 nM and 0.3 nM
3 | SA04a (antibody, human IgG1, V domains shown, murine variable regions on human IgG1 kappa constant regions) VH: QIQFVQSGPEVKTPGETVKISCKASVYTFTEYPMHWLKQAPGEDFEWMGWIHTYSGEPTYADDFKGRFAFSLETSASTAYLQINNLKTEDTATYFCARGRYYGALDYWGQGTALT VL: DIQMTQTPSSLSASLGDRVTISCRASQDISNYLNWYQQKPDGTVKLLIYYTSRLHSGVPSRFSGSGSGTDYSLTISNLEQEDVATYFCQHGNTLPRTFGGGTKLEIK | 2.6 nM | – | – | – | – | – | 1.5 nM | 0.26 nM | 1.5 nM | 0.26 nM | 5.8 fold | no binding | 0.67 nM | 0.25 nM | EC50 (nM), HEK293 IL-18 Reporter Assay (SEAP) [12]: 0.1 nM
4 | SA50a (antibody, human IgG1, V domains shown, humanized; human IgG1 (suffix a), kappa; also called humanized SA04a) VH: QVQLVQSGSELKKPGASVKVSCKASVYTFTEYPMHWLRQAPGQGFEWMGWIHTYSGEPTYADDFKGRFVFSLDTSVSTAYLQISSLKAEDTAVYFCARGRYYGALDYWGQGTALTVSS VL: DIQMTQSPSSLSASVGDRVTITCRASQDISNYLNWYQQKPGKAVKLLIYYTSRLHSGVPSRFSGSGSGTDYTFTISSLQPEDIATYFCQHGNTLPRTFGGGTKLEIK | – | – | – | – | – | – | – | – | 4.27 nM | 0.41 nM | – | – | – | – | binding result (mouse IL-18BP [21]): no binding
5 | SA44a (antibody, human IgG1, V domains shown, murine variable regions on human IgG1 kappa constant regions) VH: DVQLQESGPDLVKPSQSLSLTCTVTGYSITSDYNCHWIRQFPGNKLEWMGYIHYSGSTNYNPSLKSRISITRDTSKNQFFLQLNSVTAEDTATYYCARNYGSIYVNYFDYWGQGTTLTVSS VL: QIVLTQSPAIMSASPGEKVTISCSASSSVSYMYWYQQEPGSSPKPWIYRTSNLASGVPPRFSGSGSGTSYSLTISSMEAEDAATYFCQQYHSYPTFGGGTKLEIK | – | 0.525 nM | 0.688 nM | 0.524 nM | 0.685 nM | 0.76 ratio | 0.525 nM | 0.688 nM | – | – | 1 fold | no binding | 0.67 nM | 0.51 nM | binding result (mouse IL-18BP [22]): no binding

Source: US20250368745A1 (published 2025)
